Publication PMC13087191 (Scientific Reports, 2026)
Each block holds one binder with its values, some of them ahead of it.

B3: UBXN7-SBP (natural protein, human, UniProt O94888 1-489, looked up)
chain: MAAHGGSAASSALKGLIQQFTTITGASESVGKHMLEACNNNLEMAVTMFLDGGGIAEEPSTSSASVSTVRPHTEEEVRAPIPQKQEILVEPEPLFGAPKRRRPARSIFDGFRDFQTETIRQEQELRNGGAIDKKLTTLADLFRPPIDLMHKGSFETAKECGQMQNKWLMINIQNVQDFACQCLNRDVWSNEAVKNIIREHFIFWQVYHDSEEGQRYIQFYKLGDFPYVSILDPRTGQKLVEWHQLDVSSFLDQVTGFLGEHGQLDGLSSSPPKKCARSESLIDASEDSQLEAAIRASLQETHFDSTQTKQDSRSDEESESELFSGSEEFISVCGSDEEEEVENLAKSRKSPHKDLGHRKEENRRPLTEPPVRTDPGTATNHQGLPAVDSEILEMPPEKADGVVEGIDVNGPKAQLMLRYPDGKREQITLPEQAKLLALVKHVQSKGYPNERFELLTNFPRRKLSHLDYDITLQEAGLCPQETVFVQERN
notes: UBXN7, human, wild type; also called SBP-tagged version of UBXN7; homolog of Ubx5; source: E. coli BL21 CodonPlus (DE3) RIPL, purified (Ni-NTA, SEC); not shown: SBP, C-terminal, kept

Experiments:
Conditions in all cases: both partners purified
UBXN7-SBP = target: B3; test: pull-down; 1 µM UBXN7-SBP on streptavidin agarose with 1 µM p97, 1 µM human UN, 1 µM Yod1-C160S and 1 µM Ub(n)-TAIL, SEC buffer, 5 mM ATPγS, 1 h, 4 °C; eluted with 2 mM biotin; Coomassie
Cdc48-UN ATPase complex = target: T1, Cdc48-UN ATPase complex (S. cerevisiae, UniProt P25694 1-835; P53044 1-361; P33755 1-580); test: pull-down; 1 µM Otu1-C120S-FLAG on anti-FLAG M2 agarose with 1 µM Cdc48, 1 µM UN and 1 µM Ub(n)-TAIL, with or without 1 µM Ubx5, SEC buffer, 5 mM ATPγS, 1 h, 4 °C; eluted with 3xFLAG peptide; fluorescence scan and Coomassie
T1 construct: Cdc48 ATPase of S. cerevisiae, wild type; Ufd1 of S. cerevisiae; Npl4 of S. cerevisiae; also called Cdc48 with the Ufd1-Npl4 (UN) complex; source: E. coli BL21 CodonPlus (DE3) RIPL, purified (Ni-NTA, SEC); Cdc48 and UN mixed; copies: 6 + +
T1 sequence (P25694 whole entry, chain 1 of 3): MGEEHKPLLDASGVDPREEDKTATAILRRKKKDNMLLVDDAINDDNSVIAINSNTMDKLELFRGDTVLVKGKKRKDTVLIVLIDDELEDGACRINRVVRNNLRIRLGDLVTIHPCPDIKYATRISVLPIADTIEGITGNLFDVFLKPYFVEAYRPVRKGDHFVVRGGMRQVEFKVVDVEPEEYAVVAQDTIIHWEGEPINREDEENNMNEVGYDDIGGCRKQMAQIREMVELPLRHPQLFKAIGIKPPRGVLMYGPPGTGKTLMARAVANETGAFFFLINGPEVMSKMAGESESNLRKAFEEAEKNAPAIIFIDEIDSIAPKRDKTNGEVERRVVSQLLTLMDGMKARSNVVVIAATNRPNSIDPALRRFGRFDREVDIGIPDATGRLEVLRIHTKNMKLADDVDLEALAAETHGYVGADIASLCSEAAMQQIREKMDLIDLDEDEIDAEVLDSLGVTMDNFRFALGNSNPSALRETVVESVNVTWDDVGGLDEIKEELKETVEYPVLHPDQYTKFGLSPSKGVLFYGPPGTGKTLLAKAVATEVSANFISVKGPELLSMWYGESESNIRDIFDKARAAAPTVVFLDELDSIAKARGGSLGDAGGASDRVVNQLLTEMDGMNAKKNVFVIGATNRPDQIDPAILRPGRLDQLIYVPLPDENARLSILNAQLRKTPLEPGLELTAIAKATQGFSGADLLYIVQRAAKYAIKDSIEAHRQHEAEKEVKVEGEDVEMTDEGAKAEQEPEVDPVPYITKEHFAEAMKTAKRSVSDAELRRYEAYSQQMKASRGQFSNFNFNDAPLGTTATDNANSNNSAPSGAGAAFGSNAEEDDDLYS
T1 sequence (P53044 whole entry, chain 2 of 3): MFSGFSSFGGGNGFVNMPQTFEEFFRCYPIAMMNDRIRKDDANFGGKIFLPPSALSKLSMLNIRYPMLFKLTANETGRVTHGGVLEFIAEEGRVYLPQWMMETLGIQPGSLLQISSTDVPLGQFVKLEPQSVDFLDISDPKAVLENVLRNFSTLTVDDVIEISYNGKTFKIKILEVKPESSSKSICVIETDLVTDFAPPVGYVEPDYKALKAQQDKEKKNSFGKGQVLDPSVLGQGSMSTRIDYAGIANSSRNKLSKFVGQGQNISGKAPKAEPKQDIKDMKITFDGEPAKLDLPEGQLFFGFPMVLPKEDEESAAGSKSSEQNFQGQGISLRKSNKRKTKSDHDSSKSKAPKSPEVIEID
T1 sequence (P33755 whole entry, chain 3 of 3): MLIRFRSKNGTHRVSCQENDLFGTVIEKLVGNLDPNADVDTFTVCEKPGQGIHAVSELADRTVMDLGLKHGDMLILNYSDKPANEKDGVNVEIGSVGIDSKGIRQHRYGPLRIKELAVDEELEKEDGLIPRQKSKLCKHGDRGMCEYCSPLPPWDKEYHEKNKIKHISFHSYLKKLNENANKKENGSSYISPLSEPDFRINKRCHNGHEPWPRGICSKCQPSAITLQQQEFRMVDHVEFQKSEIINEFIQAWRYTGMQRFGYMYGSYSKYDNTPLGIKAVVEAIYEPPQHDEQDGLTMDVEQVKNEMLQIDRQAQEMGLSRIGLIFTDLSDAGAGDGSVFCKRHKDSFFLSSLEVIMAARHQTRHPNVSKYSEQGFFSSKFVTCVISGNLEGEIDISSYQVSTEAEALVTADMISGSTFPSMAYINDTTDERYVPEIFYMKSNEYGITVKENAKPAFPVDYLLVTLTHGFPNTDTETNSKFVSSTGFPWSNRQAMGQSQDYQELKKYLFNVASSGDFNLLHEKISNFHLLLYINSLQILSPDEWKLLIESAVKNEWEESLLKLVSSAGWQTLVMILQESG

Human p97 ATPase = target: T2, Human p97 ATPase (human, UniProt P55072 1-806); test: pull-down; 1 µM UBXN7-SBP on streptavidin agarose with 1 µM p97, 1 µM human UN, 1 µM Yod1-C160S and 1 µM Ub(n)-TAIL, SEC buffer, 5 mM ATPγS, 1 h, 4 °C; eluted with 2 mM biotin; Coomassie
T2 construct: p97 (VCP), human, wild type; also called VCP; homolog of Cdc48; source: E. coli BL21 CodonPlus (DE3) RIPL, purified (Ni-NTA, SEC)
T2 sequence (P55072 whole entry): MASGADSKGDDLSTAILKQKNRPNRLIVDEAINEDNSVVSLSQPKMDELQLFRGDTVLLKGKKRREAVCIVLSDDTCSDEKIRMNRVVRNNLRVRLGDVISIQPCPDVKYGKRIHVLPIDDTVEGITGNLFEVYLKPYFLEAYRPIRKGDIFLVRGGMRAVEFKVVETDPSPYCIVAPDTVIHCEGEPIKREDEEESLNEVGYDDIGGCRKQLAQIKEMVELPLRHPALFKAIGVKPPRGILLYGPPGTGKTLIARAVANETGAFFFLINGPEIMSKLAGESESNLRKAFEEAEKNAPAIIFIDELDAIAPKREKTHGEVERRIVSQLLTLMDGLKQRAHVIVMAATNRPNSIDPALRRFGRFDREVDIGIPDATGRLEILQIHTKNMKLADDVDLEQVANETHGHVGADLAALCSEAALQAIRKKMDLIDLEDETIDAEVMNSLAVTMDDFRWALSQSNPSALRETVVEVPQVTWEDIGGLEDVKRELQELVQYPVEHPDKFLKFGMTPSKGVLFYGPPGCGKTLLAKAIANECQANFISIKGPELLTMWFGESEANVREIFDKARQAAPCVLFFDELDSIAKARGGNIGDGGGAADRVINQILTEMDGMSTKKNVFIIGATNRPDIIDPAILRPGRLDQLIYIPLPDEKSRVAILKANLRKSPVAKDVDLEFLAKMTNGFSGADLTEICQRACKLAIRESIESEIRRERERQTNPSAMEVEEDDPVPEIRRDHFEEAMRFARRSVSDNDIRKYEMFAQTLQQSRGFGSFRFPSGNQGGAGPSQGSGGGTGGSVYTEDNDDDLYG

human Npl4 = target: T3, human Npl4 (human, UniProt Q8TAT6 1-608); test: as above
T3 construct: Npl4, human; The plasmid paragraph tells of Npl4 in pET21 with a C-terminal His6 or FLAG-His6 tag and the purification paragraph of an untagged UN complex; neither says which holds for the human protein; also called hNpl4; source: purified; part of the 'human UN' complex
T3 sequence (Q8TAT6 whole entry): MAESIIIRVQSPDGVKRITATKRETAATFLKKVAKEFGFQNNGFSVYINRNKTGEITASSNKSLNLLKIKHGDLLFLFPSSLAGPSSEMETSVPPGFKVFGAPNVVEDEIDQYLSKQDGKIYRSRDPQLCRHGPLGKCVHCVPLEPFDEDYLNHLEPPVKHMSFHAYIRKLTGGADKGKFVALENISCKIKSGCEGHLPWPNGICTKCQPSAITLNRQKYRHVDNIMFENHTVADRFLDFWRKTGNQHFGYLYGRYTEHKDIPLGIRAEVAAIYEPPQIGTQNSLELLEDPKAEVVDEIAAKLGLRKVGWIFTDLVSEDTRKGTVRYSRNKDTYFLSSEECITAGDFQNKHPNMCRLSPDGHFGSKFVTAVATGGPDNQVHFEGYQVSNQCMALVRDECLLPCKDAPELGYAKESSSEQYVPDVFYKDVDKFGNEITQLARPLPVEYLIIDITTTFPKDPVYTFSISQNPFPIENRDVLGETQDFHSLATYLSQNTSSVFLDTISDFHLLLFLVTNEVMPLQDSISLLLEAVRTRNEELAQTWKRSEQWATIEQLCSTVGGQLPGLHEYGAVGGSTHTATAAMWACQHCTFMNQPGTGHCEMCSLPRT

binding result (UBXN7-SBP): binds
B1: Yod1-C160S (enzyme, human, UniProt Q5VVQ6 1-348, looked up)
chain: MFGPAKGRHFGVHPAPGFPGGVSQQAAGTKAGPAGAWPVGSRTDTMWRLRCKAKDGTHVLQGLSSRTRVRELQGQIAAITGIAPGGQRILVGYPPECLDLSNGDTILEDLPIQSGDMLIIEEDQTRPRSSPAFTKRGASSYVRETLPVLTRTVVPADNSSLFTSVYYVVEGGVLNPACAPEMRRLIAQIVASDPDFYSEAILGKTNQEYCDWIKRDDTWGGAIEISILSKFYQCEICVVDTQTVRIDRFGEDAGYTKRVLLIYDGIHYDPLQRNFPDPDTPPLTIFSSNDDIVLVQALELADEARRRRQFTDVNRFTLRCMVCQKGLTGQAEAREHAKETGHTNFGEV
notes: Yod1, human, with the active-site mutation C160S; also called homolog of Otu1; source: E. coli BL21 CodonPlus (DE3) RIPL, purified (Ni-NTA, SEC)

binding result (Cdc48-UN ATPase complex): binds
B2: Otu1-C120S-FLAG (enzyme, S. cerevisiae, UniProt P43558 1-301, looked up)
chain: MKLKVTGAGINQVVTLKQDATLNDLIEHINVDVKTMRFGYPPQRINLQGEDASLGQTQLDELGINSGEKITIESSDSNESFSLPPPQPKPKRVLKSTEMSIGGSGENVLSVHPVLDDNSSLFHAIAYGIFKQDSVRDLREMVSKEVLNNPVKFNDAILDKPNKDYAQWILKMESWGGAIEIGIISDALAVAIYVVDIDAVKIEKFNEDKFDNYILILFNGIHYDSLTMNEFKTVFNKNQPESDDVLTAALQLASNLKQTGYSFNTHKAQIKCNTCQMTFVGEREVARHAESTGHVDFGQNR
notes: Otu1, deubiquitinating enzyme of S. cerevisiae (Yod1 in mammals), with the active-site mutation C120S; pET28 with an N-terminal His6-tag and a TEV-protease cleavage site followed by a FLAG tag; source: E. coli BL21 CodonPlus (DE3) RIPL, purified (Ni-NTA, SEC)

Binder: B3
binding result (Human p97 ATPase): binds | binding result (human Npl4): binds
